B1: Azoarcus group I ribozyme (parent)
chain: GUGCCUUGCGCCGGGAAACCACGCAAGGGAUGGUGUCAAAUUCGGCGAAACCUAAGCGCCCGCCCGGGCGUAUGGCAACGCCGAGCCAAGCUUCGGCGCCUGCGCCGAUGAAGGUGUAGAGACUAGACGGCACCCACCUAAGGCAAACGCUAUGGUGAAGGCAUAGUCCAGGGAGUGGCGAAAGUCACACAAACCGG

Variants of B1 are the subject of this series. Kind of series: reverse-splicing fitness (ratio to wild type); higher = more active; in vitro selection; Mg2+ level not given. The essentials: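 An in vitro group I ribozyme library with randomized positions was T7-transcribed and gel-purified. In triplicate, 10 pmol RNA in EPPS pH 7.5 was reacted with 50 pmoles of a 30-nt RNA substrate for 1 h at 37 °C across several added MgCl2 levels (1–48 mM), then stopped with EDTA. Products were reverse transcribed from a substrate-complementary primer, PCR-amplified and sequenced (HiSeq 4000). Fitness is a variant's read proportion after selection over that before, normalised to wild type.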
With C82A A120C C150U U176A, the reverse-splicing fitness amounted to 0.0246.

On to C82U A111C A120C A145C U176C, for which the reverse-splicing fitness came to 0.0155.

For A111U A120G A145U U176C, the reverse-splicing fitness was 0.0483.

With C82A A111U A120U A145G C150G C169G U176G, the reverse-splicing fitness amounted to 0.00413.

As for C82G A111C A120G A145G C150A C169A, the reverse-splicing fitness turned out to be 0.0104.

As to C82G A111U A120U A145C C150G C169A, the reverse-splicing fitness turned out to be 0.00362.

As for C82G A120G C150A U176C, the reverse-splicing fitness came out at 0.0195.

C82U A120U A145C C150G C169U U176G: the reverse-splicing fitness is 0.00191.

In the case of C82A A111G A145G C150A C169A U176A, the reverse-splicing fitness was found to be 0.0216.

Take A111G A120U A145U C169A U176C: the reverse-splicing fitness was determined as 0.00348.

On to C82G A111G A120C A145U C150A C169U U176C, for which the reverse-splicing fitness was 0.0136.

Regarding A120G A145C C150A C169U U176C, the reverse-splicing fitness came to 0.0294.

With C82U A120G A145G C150U C169G U176G, the reverse-splicing fitness amounted to 0.00383.

In the case of C82G A120U A145G C150U U176G, the reverse-splicing fitness came out at 0.0104.

With C82A A111G A120C C150G C169A U176A, the reverse-splicing fitness was 0.0116.

For the variant A111U A120U A145G C150G C169G U176A, the reverse-splicing fitness came out at 0.00683.

Regarding C82U A111C A120C A145C, the reverse-splicing fitness is 0.0222.

For C82A A111G A120U A145U C150A C169U U176C, the reverse-splicing fitness is 0.00285.

Take C82A A111C A120U A145U C169U U176A: the reverse-splicing fitness was found to be 0.00262.

For A145U C169G, the reverse-splicing fitness is 0.3.

With A111U A120U A145U C169U U176G, the reverse-splicing fitness amounted to 0.00258.

For the variant C82A A145C U176A, the reverse-splicing fitness came out at 0.346.

As to C82A A111G A120G A145G C150G U176C, the reverse-splicing fitness came out at 0.00999.

Regarding C82G A111G A120U A145U C150A C169G U176G, the reverse-splicing fitness stood at 0.00181.

C82G A111U A120G A145G C150A C169U U176A: the reverse-splicing fitness was 0.0204.

Regarding C82G A111U A145G C150A C169A U176C, the reverse-splicing fitness came to 0.0216.

As to C82U A145C C150G C169U U176G, the reverse-splicing fitness was determined as 0.00486.

On to A111G A120U A145C C150U C169G U176G, for which the reverse-splicing fitness stood at 0.00177.

Turning to C82G A111U A120U A145C C169U U176C, the reverse-splicing fitness is 0.00238.

Take A111U A120G A145G C150G C169A U176G: the reverse-splicing fitness is 0.00787.

In the case of C82G A111U A120U C169A U176G, the reverse-splicing fitness turned out to be 0.00169.

Turning to C82U A111U C169A U176A, the reverse-splicing fitness worked out at 0.0141.

Regarding A111G A120G C150U, the reverse-splicing fitness is 0.156.

C82A A120G A145C C150U U176C: the reverse-splicing fitness came out at 0.0102.

In the case of A111C A120C C150U C169G U176C, the reverse-splicing fitness worked out at 0.0164.

Regarding C82U A111C A145U C150G U176G, the reverse-splicing fitness came out at 0.00446.

For the variant C82G A120C A145G C150G C169A U176A, the reverse-splicing fitness amounted to 0.0143.

Regarding C82G A111U A120U C150U U176C, the reverse-splicing fitness is 0.0123.

For C82G C169A, the reverse-splicing fitness came out at 0.00968.

Regarding C82U A145C C169G U176G, the reverse-splicing fitness was found to be 0.00428.

For C82G A120U A145U C150A C169A, the reverse-splicing fitness amounted to 0.00187.

In the case of C82A A120C A145U C150A C169U, the reverse-splicing fitness came to 0.00955.

Consider C82G A111G A120U C150U C169G, for which the reverse-splicing fitness came out at 0.00538.

As to C82A A111C A145U C150U C169G U176G, the reverse-splicing fitness stood at 0.00855.

Take C82G A111U A120C A145G C150A C169A U176A: the reverse-splicing fitness is 0.02.

With C82U A111C A120U A145U C150A C169U U176A, the reverse-splicing fitness worked out at 0.00365.

Regarding A111G A120C A145G C150G U176G, the reverse-splicing fitness was 0.00497.

For the variant A120U C150U C169G U176G, the reverse-splicing fitness was found to be 0.00278.

In the case of C82A A111G A120U A145G C150U U176A, the reverse-splicing fitness was found to be 0.0096.

For the variant C82A A111C A145U C150U C169A U176G, the reverse-splicing fitness was 0.00861.

For the variant C82A A120U A145U C150U C169A U176A, the reverse-splicing fitness came to 0.00275.

On to C82G A111C A145C C150G C169A U176G, for which the reverse-splicing fitness came to 0.00732.

For the variant C82G A111C A120U C150A C169A, the reverse-splicing fitness amounted to 0.00547.

As for C82G A111G A120G A145U C150U U176A, the reverse-splicing fitness worked out at 0.0125.

In the case of A111U A120U A145U C150U U176C, the reverse-splicing fitness amounted to 0.174.

Consider C82A A111C C150G C169U, for which the reverse-splicing fitness amounted to 0.00907.

For C82G A111C A120U A145C C150U U176C, the reverse-splicing fitness is 0.00491.

Take C82A A111U A145G C150G C169G U176G: the reverse-splicing fitness was 0.00649.

For the variant A120G U176A, the reverse-splicing fitness was 0.213.

Turning to A111C A120C A145C C150G C169G U176C, the reverse-splicing fitness turned out to be 0.00939.

As to C82U A111U A120C A145G C150U C169A U176A, the reverse-splicing fitness was found to be 0.017.

C82U A120G A145C C150U C169A U176G: the reverse-splicing fitness came to 0.00346.

Regarding C82U A111G C150U C169A U176C, the reverse-splicing fitness worked out at 0.0135.

With A111U A120G C150A C169G U176A, the reverse-splicing fitness came out at 0.0251.

As to C82U A120C A145U U176C, the reverse-splicing fitness is 0.0723.

Take C82U A111G A120G A145C C150A C169G: the reverse-splicing fitness was found to be 0.00737.

For C82U A120G A145U C169U U176C, the reverse-splicing fitness was determined as 0.0159.

As for C82G A111G A120G C150U C169U U176G, the reverse-splicing fitness came to 0.00864.

Take C82G A111G A120U A145C C169A U176G: the reverse-splicing fitness was 0.00182.

C82A A111C A120C A145C C169A U176G: the reverse-splicing fitness came to 0.00646.

As for C82U A120C A145C C150U C169G U176G, the reverse-splicing fitness was 0.00398.

For A120U A145U C169A U176G, the reverse-splicing fitness stood at 0.00158.

In the case of C82G A111G A145G C150G C169A U176C, the reverse-splicing fitness stood at 0.0146.

On to C82U A111U A145G U176G, for which the reverse-splicing fitness is 0.0229.

For A145C C150G C169U, the reverse-splicing fitness was 0.0739.

Turning to C82A A111G A120G C150A C169A U176C, the reverse-splicing fitness is 0.0184.

Turning to C82U A111G A120U C150A C169A U176C, the reverse-splicing fitness came out at 0.00313.

Take C82G A111U A120C A145C C169G U176C: the reverse-splicing fitness amounted to 0.0236.

Take A111C A120G C150A: the reverse-splicing fitness turned out to be 0.0211.

In the case of C82G A145G U176G, the reverse-splicing fitness turned out to be 0.133.

Take C82G A111C A120C A145G C169U U176C: the reverse-splicing fitness is 0.0158.

On to C82G A111G A120C A145U C150A C169A, for which the reverse-splicing fitness was found to be 0.0104.

Regarding C82G A111C A120U C150G, the reverse-splicing fitness worked out at 0.00766.

These data come from the RNAGym collection of RNA variant scans (doi:10.1093/molbev/msab373).
